Experimental findings from PMC4742278, “BS69/ZMYND11 C-Terminal Domains Bind and Inhibit EBNA2” (PLoS Pathogens, 2016) are described below.

A value given as a limit tells only on which side of the number the result lay.

Test [1] has as its target EBNA2 fragment residues 381–445 (EBNA2_(381–445)) (Epstein-Barr virus, strain B95-8) (UniProt P12978). Kind of test: ITC. On the technique in general: Isothermal titration calorimetry measures the heat released or taken up as one component is titrated into another.
In test [2] the target is BS69_(MYND) Y532A (mouse). Briefly: ITC; peptide (~1 mM) titrated into BS69_(MYND) or BS69_(CC-MYND) (~0.1 mM) at 5°C; 20 mM Tris-HCl pH 7.5, 100 mM NaCl, 2 mM DTT; one-site fitting model.
Test [3] has as its target BS69_(MYND) R560A (mouse). Described as above.
Test [4] addresses BS69/ZMYND11 coiled-coil-MYND tandem domains (BS69_(CC-MYND), residues 440–562) (mouse). The test is described as above.
The target of test [5] is BS69 MYND domain (BS69_(MYND), residues 516–562) (mouse). Described as above.
The target of test [6] is flag-tagged BS69_(CC-MYND) Q546A/W550A (mouse). Briefly: co-IP.
Test [7] concerns the target flag-tagged BS69_(CC-MYND) Q546A (mouse). Briefly: co-IP.
The target of test [8] is EBNA2 PXLXP2 mutant (Epstein-Barr virus, strain W91) (UniProt P12978).
In test [9] the target is Epstein-Barr virus nuclear antigen 2 (EBNA2), expressed from a plasmid (Epstein-Barr virus, strain W91) (UniProt P12978).

As for “BS69/ZMYND11 coiled-coil-MYND tandem domains (BS69_(CC-MYND), residues 440–562) (domain or fragment)”, the equilibrium dissociation constant (Kd) in test [1] amounted to 0.24 µM.

“EBNA2_(381–389) peptide with an additional Gly-Tyr dipeptide at the C-terminus (NH2-[…]-CONH2)”: the fold decrease of binding against wild-type BS69 (MYND) in test [2] was 3 fold; in test [3], 10 fold. Moreover, the figures for the Kd in [4] and in test [5] were 7.4 µM and 25.6 µM, respectively.

Consider “Epstein-Barr virus nuclear antigen 2 (EBNA2), expressed from a plasmid (from UniProt P12978 1-487) (natural protein)”, for which the percent reduction of EBNA2 binding against wild type worked out at 85% in test [6] and 50% in [7].

In test [8], “flag-tagged wild-type BS69_(CC-MYND) (domain or fragment)” had a BS69 inhibition of the LMP1-Luc reporter activated by the EBNA2 PXLXP2 mutant of 50%. In addition, the EBNA2 activation of the LMP1-Luc or Cp-Luc reporter in BJAB cells in the presence of wild-type BS69 (CC-MYND) (around 10-fold without BS69) in [9] was less than 2 fold.

One may read the Kd as the concentration at which binding is half-saturated. Low values mean higher affinity, high ones lower affinity.
